# Target: HuR (UniProt Q15717 1-326)
# Experiment: fluorescence anisotropy
# Chain of HuR (Q15717 whole entry): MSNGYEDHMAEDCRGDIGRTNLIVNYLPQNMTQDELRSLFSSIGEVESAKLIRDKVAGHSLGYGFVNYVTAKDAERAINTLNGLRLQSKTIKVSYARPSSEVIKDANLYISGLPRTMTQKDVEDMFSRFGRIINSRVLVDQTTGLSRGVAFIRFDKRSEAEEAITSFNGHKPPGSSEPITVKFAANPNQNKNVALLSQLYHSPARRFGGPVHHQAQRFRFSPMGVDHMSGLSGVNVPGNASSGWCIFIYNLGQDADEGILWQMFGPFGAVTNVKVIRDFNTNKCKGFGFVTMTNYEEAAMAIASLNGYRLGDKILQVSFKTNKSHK
binder,measurement,value
"UAGCAGCACGUAAAUAUUGGCG (ssRNA) [miR-16 (mature, 5'TMR-labeled)]",Kd,120 ± 9 nM

# From article PMC3262080
